According to article PMC5913134, “The IL-33-PIN1-IRAK-M axis is critical for type 2 immunity in IL-33-induced allergic airway inflammation” (Nature Communications, 2018):

Experiments:
[1] = assay type: physicochemical
Source text: The IRAK-M[1–119] gene was encoded into the pMAL-c2X vector with N-terminal fusion partner MBP, separated by a Factor XA cleavage site. The R56D and Y61D mutations were achieved using this vector, a single primer (forward primer, with mutations underlined: 5’ […] 3’) and the BIO RAD-iProof High-Fidelity DNA Polymerase to generate expression plasmid pMAL-c2X encoding the MBP- IRAK-M[1-119:R56D,Y61D] fusion protein, with a Factor XA cut site between MBP and IRAK-M[1-119:R56D,Y61D]. To produce uniformly ^15N-labeled MBP-IRAK-M[1-119:R56D,Y61D] in E. coli, transformed cells were grown in M9 minimal media with ^15NH4Cl as the sole nitrogen source, and were induced at OD600 by adding 0.4 mM final concentration of IPTG at 25 °C for 20~22 h. Cells were harvested by centrifugation at 3500 g, the cell pellet was dissolved in IRAK-M wash buffer (20 mM Tris, 200 mM NaCl, 1 mM EDTA, and 0.2 mM TCEP, pH 7.4), and sonicated on ice. Cell debris was removed by centrifugation, the supernatant was incubated with 5 mL of Amylose Resin (BioLabs) pre-equilibrated with IRAK-M wash buffer. The column was washed with 4 bed volumes of IRAK-M wash buffer, and the fusion protein was eluted with 2 bed volumes of elution buffer (10 mM of Maltose added to IRAK-M wash buffer). […] IRAK-M[1-119:R56D,Y61D] concentration was measured by UV absorption at 280 nm (extinction coefficient = 25105 cm^-1 M^-1). […]

IRAK1 = assay: In vitro phosphorylation by IRAK1 immunoprecipitated from IL-33 stimulated cells; assay type: biochemical; conditions: IRAK1 IPed from IL-33 stimulated cells, γP32 ATP, autoradiography
Source text: Suppl em enta ry Figur e 2.
Supplementary Figure 2. IRAK-M DD structure modeling analysis and phosphorylation by IRAK1.
(a) Overlaid 1H-15N HSQC spectra of the 15N-labeled Pin1 WW domain showing changes in chemical environment resulting from titration with the phosphorylated IRAK-M peptide. Overlaid spectra of apo (red) and increasing amounts of ligand (rainbow of colors, with purple as highest ligand concentration) show progressive peak shifts. (b) Interaction between IRAK-M DD and IRAK1 DD from Figure 3f. Cyan: IRAK1 DDs, Yellow: IRAK-M DD. (c) The aromatic residues interaction between IRAK-M DD and IRAK4 DD from Figure 3f. Green: IRAK4 DDs, Yellow: IRAK-M DD. (d) IRAK-M or its mutants as described, were expressed in 293 cells or 293 IRAK1null cells expressing the ST2 receptor and treated with IL-33. The phosphorylation is shown by the slow migrating bands. (e) WT or Pin KO cells were treated with IL-33 and IRAK1 phosphorylation was monitored at different time after stimulation. (f) DC2.4 cells were either treated or not with IL-33. IRAK1 was IP’d and incubated with GST-IRAK-M aa1-120 in the presence of ΓP32ATP.
The beads were washed and GST-IRAK-M was eluted and run for autoradiography. […]

IRAK-M [2] = assay: IRAK-M nuclear localization in DC2.4 cells; assay type: cell-based, C57BL/6; conditions: stably expressed in DC2.4 cells
Description: Suppl em enta ry Figur e 3. a DAPI IR AK-M Pin1 Mergeb […]
Supplementary Figure 3. Pin1 targets IRAK-M and promotes its nuclear translocation upon IL-33 induction.
(a) Immunostaining for IRAK-M and Pin1 in DC2.4 cells before and after IL-33 treatment. ( b) DC2.4 cells were treated with IL-33 and subjected to nuclear/cytoplasmic fractionation, followed by Western blot for IRAK-M with actin as a cytoplasmic marker and Fox1 as a nuclear marker. C- cytoplasmic; N- Nuclear.
(c) Cytospin slides from BALF of the treated WT mice as indicated, were co stained for DC205 and IRAK-M.
(d) IRAK-M or its mutants S110E or P111A were stably expressed in DC2.4 cells and their localization and Pin1 localization were monitored by immunostaining. (e) GFP-IRAK-M were expressed in Pin1 KO MEFs either with or without RFP-Pin1 as indicated, and their localization was monitored. Scale = 50 µm.
(also on this page, place not known: Control +IL-33: b DAPIe MergeGFP RFP GFP- GFP-IRAK-M/ RFP MergeIRAK-M Pin1DAPI ControlIL-33 Mergec Supplementary Figure IRAK-M IRAK-M (b) IL-33 IRAK-M IRAK-M Pin1) […]

IRAK-M [3] = assay: IRAK-M protein stability, cycloheximide chase; assay type: cell-based; conditions: mutant IRAK-M, WT MEFs; reproduced in DC2.4 cells
Description: Fig. 4 PIN1 increases IRAK-M protein stabilization. a After IRAK-M and GFP were coexpressed in WT and PIN1 KO MEFs for 24 h, cells were split equally into 5 dishes. 24 h later cells were treated with cyclohexamide and harvested to monitor IRAK-M, GFP and PIN1 levels at the time points indicated. b Quantification of 3 independent experiments as in a. c WT MEFs stably expressing the TET on inducible short hairpin for PIN1 (shPin1) or pLKO as a control, were expressed with IRAK-M, followed by induction with Doxycycline for 18 h prior to the cyclohexamide chase. d Quantification of 3 independent experiments as in c. e BMDCs from WT or PIN1 KO mice were treated with IL-33 and the levels of IRAK-M were monitored at different time points after induction. f Quantification of 3 independent experiments as in e. g PIN1 KO MEFs were expressed with IRAK-M alone or in combination with PIN1 or its mutants W34A or K63A for 24 h, followed by the cyclohexamide chase to assay IRAK-M stability. h Quantification of 3 independent experiments as in g. i IRAK-M or its different mutants; S110A, S110E and P111A were expressed in WT MEFs, followed by the cyclohexamide chase to assay IRAK-M stability. j Quantification of 3 independent experiments as in i. k IRAK-M or its different mutants were stably expressed in DC2.4 cells, followed by the cyclohexamide chase to monitor IRAK-M stability. l Quantification of 3 independent experiments as in k. The data were analyzed by a Student’s two-tailed t test and the values are reported as mean ± standard errors of the means (SEM). *- statistical significance (P < 0.05), **- significance (P < 0.01)

PIN1-IRAK-M interaction = assay: Co-immunoprecipitation of PIN1 and IRAK-M; assay type: binding; conditions: stably expressing DC2.4 cells, with/without IL-33
Description: (§1) Fig. 2 IL-33 induces IRAK-M phosphorylation and binding to PIN1. a GST PIN1 pulldown assay with DC2.4 cell extracts either non-treated or treated with IL-33 (100 ng/ml) or LPS (100ng/ml) for 1 h. […] The cells were washed with fresh medium and treated with 100 ng/ml IL-33 for the indicated times prior to IRAK-M immunoprecipitation. d DC2.4 cells stably expressing IRAK-M were treated with IL-33 and at the indicated time points were subjected to CO-IP using anti-PIN1 antibody and blotted for IRAK-M. e HEK293 cells were transfected with different IRAK-M constructs expressing the N’ terminal domain (aa1-220), the middle portion of the protein (aa220-440) or the C’ terminal domain (aa 440-630), and then treated with IL-33, followed by CO-IP for PIN1. f DC2.4 cells stably expressing IRAK-M were treated with IL-33 and subjected to GST or GST-PIN1 pull-down.
Cells from one 10-cm dish were homogenized in lysis buffer containing 150 mM NaCl, 1% NP-40, 0.5% deoxycholate, 0.1% SDS, 50 mM Tris-HCl (pH 7.7), 1 mM phenylmethylsulfonyl fluoride (PMSF), 1 mM dithiothreitol, and protease inhibitors. Clarified supernatants were incubated with pre incubated immobilized beads rProtein A agarose beads (RepliGen) premixed with PIN1, GFP or IRAK-M antibody or, as a control, IgG overnight at 4 °C. The beads were washed extensively with lysis buffer before elution in SDS sample buffer.

IRAK-M [4] = assay: IRAK-M phosphorylation in DC2.4 cells; assay type: cell-based, C57BL/6; conditions: DC2.4 stably expressing mutant, IL-33
Description: as §1

B1: IRAK-M[1–119]: recombinant IRAK-M residues 1–119 including the DD (protein, UniProt Q8K4B2 1-119, looked up, fragment)
chain: MAGRCGARGALSPQLLLFDLPPALLGELCGILDSCDGPLGWRGLAERLSNSWLDVRHIEKYVNQGKSGTRELLWSWAQKNKTIGDLLEVLQDMGHQRAIHLIINYGVSWTPSVQTHHEL
- solubility of cleaved protein [1]: precipitated under all conditions explored

B2: GST-IRAK-M: purified GST-IRAK-M containing amino acids 1-120 (protein, UniProt Q8K4B2 1-120, looked up, fragment)
chain: MAGRCGARGALSPQLLLFDLPPALLGELCGILDSCDGPLGWRGLAERLSNSWLDVRHIEKYVNQGKSGTRELLWSWAQKNKTIGDLLEVLQDMGHQRAIHLIINYGVSWTPSVQTHHELP
modifications: GST tag
- phosphorylation by IRAK1 (IRAK1): phosphorylated WT IRAK-M

B3: S110E: IRAK-M full protein phosphomimetic mutant S110E (protein)
chain: MAGNCGARGALSAHTLLFDLPPALLGELCAVLDSCDGALGWRGLAERLSSSWLDVRHIEKYVDQGKSGTRELLWSWAQKNKTIGDLLQVLQEMGHRRAIHLITNYGAVLEPSEKSYQEGGFPNILFKETANVTVDNVLIPEHNEKGILLKSSISFQNIIEGTRNFHKDFLIGEGEIFEVYRVEIQNLTYAVKLFKQEKKMQCKKHWKRFLSELEVLLLFHHPNILELAAYFTETEKFCLIYPYMRNGTLFDRLQCVGDTAPLPWHIRIGILIGISKAIHYLHNVQPCSVICGSISSANILLDDQFQPKLTDFAMAHFRSHLEHQSCTINMTSSSSKHLWYMPEEYIRQGKLSIKTDVYSFGIVIMEVLTGCRVVLDDPKHIQLRDLLRELMEKRGLDSCLSFLDKKVPPCPRNFSAKLFCLAGRCAATRAKLRPSMDEVLNTLESTQASLYFAEDPPTSLKSFRCPSPLFLENVPSIPVEDDESQNNNLLPSDEGLRIDRMTQKTPFECSQSEVMFLSLDKKPESKRNEEACNMPSSSCEESWFPKYIVPSQDLRPYKVNIDPSSEAPGHSCRSRPVESSCSSKFSWDEYEQYKKE
- nuclear localization of mutant IRAK-M (IRAK-M [2]): higher nuclear localization
- resistance of IRAK-M to degradation (IRAK-M [3]): completely resistant to degradation
- PIN1 interaction (CO-IP), IRAK-M mutants (PIN1-IRAK-M interaction): much weaker PIN1 interaction was evident before IL-33 stimulation

B4: P111A: IRAK-M mutant that eliminates the PIN1 consensus motif (protein)
chain: MAGNCGARGALSAHTLLFDLPPALLGELCAVLDSCDGALGWRGLAERLSSSWLDVRHIEKYVDQGKSGTRELLWSWAQKNKTIGDLLQVLQEMGHRRAIHLITNYGAVLSASEKSYQEGGFPNILFKETANVTVDNVLIPEHNEKGILLKSSISFQNIIEGTRNFHKDFLIGEGEIFEVYRVEIQNLTYAVKLFKQEKKMQCKKHWKRFLSELEVLLLFHHPNILELAAYFTETEKFCLIYPYMRNGTLFDRLQCVGDTAPLPWHIRIGILIGISKAIHYLHNVQPCSVICGSISSANILLDDQFQPKLTDFAMAHFRSHLEHQSCTINMTSSSSKHLWYMPEEYIRQGKLSIKTDVYSFGIVIMEVLTGCRVVLDDPKHIQLRDLLRELMEKRGLDSCLSFLDKKVPPCPRNFSAKLFCLAGRCAATRAKLRPSMDEVLNTLESTQASLYFAEDPPTSLKSFRCPSPLFLENVPSIPVEDDESQNNNLLPSDEGLRIDRMTQKTPFECSQSEVMFLSLDKKPESKRNEEACNMPSSSCEESWFPKYIVPSQDLRPYKVNIDPSSEAPGHSCRSRPVESSCSSKFSWDEYEQYKKE
- IRAK-M phosphorylation (mutant) (IRAK-M [4]): totally abolished
- decrease of IRAK-M protein stability (IRAK-M [3]): ~ 50%
- PIN1 interaction (CO-IP), IRAK-M mutants (PIN1-IRAK-M interaction): totally abolished
